Assays:
[1] = test system: DpnI biotinylated (bDpnI); test: pulldown
[2] = test system: anti-N6-methyladenine mouse polyclonal antisera (Mus musculus); test: ELONA; conditions: N6-methyladenine at position 6 (printed as marked A) [6 (N6-methyladenine)]; oligo ELISA, antisera 1:10,000
[3] = test system: anti-N6-methyladenine monoclonal antibody (best hybridoma) (Mus musculus); test: ELONA; conditions: N6-methyladenine at position 6 (printed as marked A) [6 (N6-methyladenine)]; nearly 40 fold discrimination

Substance: human genomic DNA
- binding signal ([1]; 1 ug human DNA, one wash, reduced to 1% with three washes): 10 % recovered

Substance: GCAGGATCAACAGTCACACT [N6mA oligo]
- binding signal (fold preference over unmethylated oligo) [2]: > 10
- binding signal (fold preference over unmethylated oligo) [3]: 40

Substance: E. coli genomic DNA
- binding signal ([1]; N6-methyladenine at GATC (dam), 10 ng E. coli DNA in 1 ug human DNA, at least 30% at pg input): > 80 % recovered

Source: US20130017541
